According to the DeepSol protein solubility set:

Test: soluble on expression in E. coli; label from the status in PepcDB or PDB records

Row | Sequence | soluble on expression in E. coli
1 | MSLEEYNLIKPSHCKCQIVELEDIYRRDLNLLVALRVLIEESSVSKAATRLNLSQSAMSRVLGRLRDLLGDPLFTRQGQHLIPTQKALEIDRSLGEPLESLRQLLSPVEFDPQQCDQTFTIATTDYAMQTILPFALPRIYQEAPNVSFNFLPLQHDRLSDQLTYEGADLAICRPTGPVEPLRSEILGRVGVLCLLSKQHPLANQEMSLDDYLSHPHAMIAISDGVKALIEQALIDKPQRKMVLRAYHLEAALAIVDTLPIIITVPADLAYLVAERYDLVVKPLPFQFTPFDYSMIWHARCEHSPAQEWLRSVVREECSRLIAKRIEDMGLNEGHHHHHH | soluble
2 | MKDFNQRFRDLHKLRQRARKENHEQVVEEDRRSKLPKNHEAKKERDQWQVKELQDRKAAEDKGLDYERVRSLEMSADVTEKLEQKRKRKKNPDQGFTSYEDMTLRQHTRLTAALDPDLDSYKKMRECVGGEQFYPTADTLIHGNHYPTTAAMDKLTKDVHGQVKRREQYHRRRLYDPDAPIDYINEKNKKFNKKLDKYYGKYTEDIKDDLERGTAI | not soluble
3 | MTKISKIIDELNNQQADAAWITTPLNVYYFTGYRSEPHERLFALLIKKDGKQVLFCPKMEVEEVKASPFTGEIVGYLDTENPFSLYPQTINKLLIESEHLTVARQKQLISGFNVNSFGDVDLTIKQLRNIKSEDEISKIRKAAELADKCIEIGVSYLKEGVTECEVVNHIEQTIKQYGVNEMSFDTMVLFGDHAASPHGTPGDRRLKSNEYVLFDLGVIYEHYCSDMTRTIKFGEPSKEAQEIYNIVLEAETSAIQAIKPGIPLKDIDHIARNIISEKGYGEYFPHRLGHGLGLQEHEYQDVSSTNSNLLEAGMVITIEPGIYVPGVAGVRIEDDILVTNEGYEVLTHYEK | not soluble
4 | MAHHHHHHMPHEDHKKYRVQREDLPAMPHFSDFNDPRFCGTTNKQKNGILAYYQWLHCIGNWGEEHSMCKKMRWYVERMMHETWLEKWEEKRALGHFDHTVLYGVKPWKEFEPLYQPVKKNRKGAYEYWLDRDFEPLYDVDAADWRERAPILHDMFVLGKKPVSE | soluble
5 | MGSDKIHHHHHHMSVGRIGFIGTGSITEAIVTGLATCADVPTEVWLSPRNAQIADRLAQAYPMVQVAGENQEVVDRCDVVCLAVRPQVAESVLQALRFSGRHHVISFIATYGLDKLRTLIAPAKTLVRAAPLPTVAEHLCNTLVFPADDIARSLFTQLGGAIEVGSEEAFDVLFSATATMGSYFALLHNQARWLEQHGSTYSEARDYLASLHFGLASVARKTQTRFDELSKEFTTAGGLNEQVLDALGAHRVFNAFDDAFDQVLHRIGGTVSQRNE | not soluble
6 | MGSDKIHHHHHHQSFTPGEIWPDNHQVHINAHGGGILYENGTYYWFGEHKTEGEAGNLANVGVHCYSSDDLYHWKDCGIALSVIENDPGHPISKGCILERPKVIYNPLTKKYVMWFHLEPKGAGYSGALSGIALSDRVTGPYTFLKAVRPNAGSWPINVLPIHKTTRRPSAEEERQCTGGSLPAHPDSLNILGRDMEQGQMARDMNLFVDDDGKAYHIYSSEENSTLHIAELDPTYTGYTGKYIRVFINRFMEAPAMFKKDGNYYLIMSGCSGWNPNAARSAIASSIWGEWKELGNPCIGQDADLTFHSQSTYILPVQGKKNQFIYMGDRWTPQNAIDGRYIWLPIHFEGPKPIIEWKDSWTLD | not soluble
7 | MATFMTEDFLLKNDIARTLYHKYAAPMPIYDFHCHLSPQEIADDRRFDNLGQIWLEGDHYKWRALRSAGVDESLITGKETSDYEKYMAWANTVPKTLGNPLYHWTHLELRRPFGITGTLFGPDTAESIWTQCNEKLATPAFSARGIMQQMNVRMVGTTDDPIDSLEYHRQIAADDSIDIEVAPSWRPDKVFKIELDGFVDYLRKLEAAADVSITRFDDLRQALTRRLDHFAACGCRASDHGIETLRFAPVPDDAQLDAILGKRLAGETLSELEIAQFTTAVLVWLGRQYAARGWVMQLHIGAIRNNNTRMFRLLGPDTGFDSIGDNNISWALSRLLDSMDVTNELPKTILYCLNPRDNEVLATMIGNFQGPGIAGKVQFGSGWWFNDQKDGMLRQLEQLSQMGLLSQFVGMLTDSRSFLSYTRHEYFRRILCNLLGQWAQDGEIPDDEAMLSRMVQDICFNNAQRYFTIK | not soluble
8 | MPNDLPFDLRPSRRTVTMGLAAGVAAALLPWRAQALDTGTARALVVEAVAQVNRTINSGKSEGQMYADFERLFARYADVPAIARTALGVAARSASRQEISAFTQAYQGYIARKYGKRFREFIGSEIKVNDARPMKSAVEVISTAYLRNENPFEVRWHVSDRSGRPAFFNIIIEGVNMLASERAEVGALLDRNRGSIPALTEQLRRASLEHHHHHH | not soluble
9 | MTRTETLELLVATLQQTNASQSESIRQLTRQNEQLQNKLDELLAQVAWLNRQLFGRKSEKLSRLDPNQLSLFEQPVQSLEPEPLEETVVEQTTTPMVTKKKERQNRKLLEGLPVVEVVIEPQDLDLTKYKRIGEEHTRTLEFEPGKLYVKEIIRPKYGLKDNTALPQEYQDGIVIADLPLLPIYKGLPGASLLAEILLQKYEYHVPFYRQIREFHHLGLKIPENTLHGWFKPACELLKPLYDELKKQVLAVDYIQVDETTLPIINKQSHKAVREYLWMVRAVTSGLVFFHYDDGSRSQETARNLLEPFKGYLQSDGYAAYNVFEGKERVCLVGCLVHIRRHYETAKEENKSQAKYVLAKIQELYRIEQAADIQGISPEMRMSKRQKQALPILDELEQWMETTYPKVLPKSQMGQAIAYAYTLWPRMRNYLKDGKLKIDNNLAENAIRPIALSRKNFLFCGNHEAAENTDVICSLLASCKASQVNPREWLTEIIAWLPYYTRDKGKDLKELLPNYWKLRRSKEI | not soluble
10 | MGSDKIHHHHHHMKKIGIIGGGQLGKMMTLEAKKMGFYVIVLDPTPRSPAGQVADEQIVAGFFDSERIEDLVKGSDVTTYDLEHIDVQTLKKLYNEGYKIHPSPYTLEIIQDKFVQKEFLKKNGIPVPEYKLVKDLESDVREFGFPVVQKARKGGYDGRGVFIIKNEKDLENAIKGETYLEEFVEIEKELAVMVARNEKGEIACYPVVEMYFDEDANICDTVIAPARIEEKYSKIAREIATSVVEALEGVGIFGIEMFLTKQGEILVNEIAPRPHNSGHYTIEACVTSQFEQHIRAIMNLPLGSTELLIPAVMVNLLGEEGYYGKPALIGLEEALAIEGLSLHFYGKKETRPYRKMGHFTVVDRDVERALEKALRAKKILKVVSEEGAMCQG | not soluble
11 | TMLCVLTTDAAAEPAALERALRRAAAATFDRLDIDGSCSTNDTVLLLSSGASEIPPAQADLDEAVLRVCDDLCAQLQADAEGVTKRVTVTVTGAATEDDALVAARQIARDSLVKTALFGSDPNWGRVLAAVGMAPITLDPDRISVSFNGAAVCVHGVGAPGAREVDLSDADIDITVDLGVGDGQARIRTTDLSHAYVEENSAYSS | soluble
12 | MDILKQLQSSTNLTPNVLARLAIALSLLSKEPIESFDSDTNGLEFNRNTLTGEYDFVYKALIAQQLGRPITDDEYFPSLIKKHLDRGAKWLENEYKYAGNYEKLIKGLAHFELEMIR | not soluble
13 | MLETRMQTTPLKIGISACLLGAKVRFDGGHKISHFVTNELDRYAEFVSVCPEMGMGLPVPRPTLRLISENERIALVETKDSSRDHTAALESYSQQKVAELQHAELCGYIVCAKSPSCGMERVKVYKHNGTEKDGVGVYTRILMEKMPWLPIEEDGRLNDPVLRENYITRVFCLHDFYTSMGDAPSAKKIVEFHSRYKLTLMAHNPQAYRALGRLVANVKQYPLDSFIQEYRLGLMQALAHRASRKNNTNVLMHLQGYFKRSLNKLQKAELAQVIESYRVGELPLLAPITLLKHYLALFPDAYLAQQRYLNPYPQELKLRYGL | not soluble
14 | MGSDKIHHHHHHAETVVVRLGLFTESISLTELQNAAKTGELPRSLQSYAKGLSEQQRRFLLGALGMNIPMNVVTINKLLNTQIGTTILNDFATALARKDNAGVQALRGGLVLGSTAPGGLSILSFIAAYPSKRLEIDLPKAFIVAGNLNTAFWRTQQFMVAIAPRLDSTTSQIAFPFDPSQPGTAQVKILNLSLNDQKRQRKIPVDIYWSNDATANKPLIVFSHGLGSVRTDLRYLAEHLASHGYVVAALEHPGSNEDNINSALQGKTRPVKPQEFLNRPQDVSFVLDELEKLNQTTNHPLQGKLATMNAMVVGYSFGGSTALALAGGELQLERLKQRCKKNLAILSLGEAMQCIAQELPENTYQLRDTRIKQAIALNPTTSLIFGETGLTKVQVPTLVLAGSADKTTPALTEQIVGFDKIPSPKWLVGIVGGTHLSVKDPSKTMDQIGQPNTPISGGEVVGEQAADIRKYLKAITLAFAAQMTPEAKNYAIFLTSDYAQFASTKAFPFRLITQIPSNAMPVVKEFGDK | not soluble
15 | MSSEAVDATTLVIIPTYNELENLPLIVDRVRTATPDVHVLIVDDNSPDGTGERADKLAADDDHIFVLHREGKGGLCAAYMAGFQWGLERDYQVLCEMDADGSHAPEQLHLLLAEITNGADLVIGSRYVPGGRVVNWPKNRWLLSKGGNVYISVALGAGLTDMTAGYRAFRREVLEALPLDELSNAGYIFQVEIAYRAVEAGFDVREVPITFTEREIGESKLDGSFVKDSLLEVTKWGLKHRGGQAKELSKEMVGLLNYEWKHFKKRNTWLLEHHHHHH | not soluble
16 | GPGSMSGGSTALKLQRLLEAEGAVIHSALQVRALPSMGGGMGVVLTERLAAGAVLARFPFRSMITARKARFNLAMAEVALELLEGHVATASTNNGSEGDNGSAGPCAATDVLHVIPFASRVWSEYEFETRVRSRRLRQLIDAKVEELAGALDSTETIVCYVLLMAALYGRLSKHARLRRSGADDGAADEEASVSGTEACACGDEAGPAPTLHYTHENAWMRTWIHALPAQYDNLLELVPVPEDSPPCLAQHGTEPECAARAPSVLSGNATTASPPPPLLARVSAYTKSSGWLRSYISLCRFQASVAREQQAIQRRHAKCCAALRCLQRLPRGVEVTEELADAGHGAAAPQNRVFASCGSSPSSSQQDCGRHDHGAACTLGQFLWAFNTLMSRGFYFPEATWALMPFVDYFNYALESNGTMYPQEDDPEDPGCFTNLLLAKTSRNGIGSVAPLMAAAAPRKQQWRTALRTARVGKAAVPLANYQTYEFQLVRPTCPPSEQVMLHYGAYSDVELLMWYGFTLRPSLLPAPQLAAAPEGRKKGTIPVLPPCLSDADGSLLHAAHGLRLALSQLASATTRVAYYRRWVAPLHRCDGAAASDADAAAACKTWLAALHCAYRLPLSPIANAEGKYPEATPGATWLDELLSAFAQTPAVAAPCTDAASEDEAAYRIDAWMRRWGSERWPGFAASAFPNITKGCAFGVLGLSPVLRAAVHSSFWTPTPERSSLSAGERLLVVRGLAWAELYVNMTAAAHADGWTTSSVPASAAAAECARTMSVDQWTLLRFLALESTDAALEEYVEYVSESEG | not soluble
17 | MGSDKIHHHHHHMIHWLKVPNNPELAKYIACYWFLEKLPNAEGHNDYPKLNPDPASHLILALPQQNFRYKSDNGVTQMDGCHWLHPHGKTYELDHAKAVACIGIKFHVGALYSLPTFMDLQEQTPQAVVDTVEAISFENINFAQSNFDDHKLSDNNQLNEHDLVILARNSPDDCAEMLDKLCLPWLLKNHEDNHSELTRKVLPLLAKAAINSLGDTLFCSQRTLERSFLKVSGVTLKQCQSMNRLEAILEFLYQREQSDIDWVDIAYQFGFSDQPHLIRYLKKQLGLTPQDYALQRGFTIDVYGGVDSL | not soluble
18 | MGSDKIHHHHHHENLYFQGMWEIYDAMINGIPEDFLVDELVCGTTHSVIRSGNGVGLGPNRPFETRMPMLTQNLLGLPLRVAAGCVKSWNYVEASIGLAAINAYYNNPQVAREHGVIFSDAKRVEDRMNDPFIMSQNEVKGKKVGVVGHFPHLESLLEPICDLSILEWSPEEGDYPLPASEFILPECDYVYITCASVVDKTLPRLLELSRNARRITLVGPGTPLAPVLFEHGLQELSGFMVKDNARAFRIVAGAEKVKIYSAGQKVTIKK | soluble
